{"source": "paper PMC5386471", "molecular_target": "Flag-ACRP-hCD40L", "data": [{"substance": "GPI-anchored CD40 ectodomain (from UniProt P25942 21-193)", "values": [{"measurement": "amount of transfected CD40-GPI plasmid sufficient to inhibit 50% of CD40-induced NF-κB response (luciferase reporter, 293T cells; CD40L here from 1 ng of co-transfected plasmid)", "result": 1.4, "unit": "ng"}]}]}
